Source: US20220160874A1

Target: CNTF receptor expressed on TF-1.CN5a.1 (ATCC CRL-2512) cells (UniProt P26992)
Assay: cell-based or functional assay

Sequence of UniProt P26992 (P26992 23-342 limits assumed): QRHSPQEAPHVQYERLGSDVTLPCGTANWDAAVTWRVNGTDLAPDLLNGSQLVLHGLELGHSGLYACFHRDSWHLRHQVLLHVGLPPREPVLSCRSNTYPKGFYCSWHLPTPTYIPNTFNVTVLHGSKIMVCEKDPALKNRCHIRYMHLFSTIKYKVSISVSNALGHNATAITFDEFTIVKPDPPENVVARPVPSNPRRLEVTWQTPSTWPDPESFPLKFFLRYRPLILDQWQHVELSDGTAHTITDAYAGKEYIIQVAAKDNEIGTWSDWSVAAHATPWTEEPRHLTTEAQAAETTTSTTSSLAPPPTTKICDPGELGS

CNTF control protein (Life Technologies) (ligand)
EC50, TF-1.CN5a.1 cell proliferation: 0.11 pM
